From US11739161B2, “Methods for treating and diagnosing prostate cancer” (Tufts Medical Center, Inc., priority 2017, dated 2023)

Legend:
Format in all cases: cell-based, human
PC-3 cells = assay: RNASE4 knockdown, cell proliferation (Coulter counter); details: PC-3, exogenous RNASE4 1 μg/ml
Description: FIGS. 13A-D. RNASE4 knockdown reduces prostate cancer cell proliferation in vitro and colony formation in soft agar. (A) Immunoblot analysis of RNASE4 in PC-3 cells stably transfected with shControl, shRNASE4-1, and shRNASE4-2. (B) qRT-PCR analysis of RNASE4 mRNA normalized to GAPDH in PC-3 cells stably transfected with shControl, shRNASE4-1, and shRNASE4-2. (C) Effect of RNASE4 knockdown on cell proliferation. Cell numbers were counted by a Coulter counter. Exogenous RNASE4, when presented, was at the concentration of 1 μg/ml. Data shown are from representative experiment (in triplicates) of 3 independent repeats. (D) Effects of RNASE4 knockdown on colonies formation and growth of PC-3 cells in soft agar. The same numbers of control and RNASE4 knockdown cells were seeded in soft agar, and grown in the absence or presence of 1 μg/ml of RNASE4 for 14 days. Colonies were counted and size measured on a Nikon Eclipse ti microscope. Left panels, representative images of colonies; scale bars=100 μm. Right panels, quantification of colony numbers and sizes. Data shown are means±SEM from five randomly selected fields per dish from a representative experiment. *P≤0.05, **P≤0.01, and ***P≤0.001, by two-tailed Student's t test.
(§1) Lentiviral mediated shRNA system (pGIPZ, Open Biosystems) was used to generate control and RNASE4 knockdown cell lines. […]

DU145 cells [1] = assay: as above; details: DU145, exogenous RNASE4 1 μg/ml
Description: (§2) FIGS. 14A-D. RNASE4 knockdown inhibits DU145 cell proliferation in vitro and colony formation in soft agar. (A) Immunoblot analysis of RNASE4 in DU145 cells stably transfected with shControl, shRNASE4-1, and shRNASE4-2. (B) qRT-PCR analysis of RNASE4 mRNA normalized to GAPDH in DU145 cells stably transfected with shControl, shRNASE4-1, and shRNASE4-2. (C) Effect of RNASE4 knockdown on cell proliferation. Cell numbers were counted by Coulter counter. Exogenous RNASE4, when presented, was at the concentration of 1 μg/ml. Data shown are from a representative experiment in triplicates of 3 independent experiments. (D) Effects of RNASE4 knockdown on colonies formation and growth of DU145 cells in soft agar. The same numbers of control and RNASE4 knockdown cells were seeded in soft agar, and grown in the absence or presence of 1 μg/ml of RNASE4 for 14 days. Colonies were counted and size measured on a Nikon Eclipse ti microscope. Top panels, representative images of colonies; scale bars=100 μm. Bottom panels, quantification of DU145 cell colonies and sizes in soft agar. Data shown are means±SEM of five randomly selected fields per dish from a representative experiment. **P≤0.01 and ***P≤0.001, by two-tailed Student's t test.
as §1

LNCaP cells = assay: as above; details: exogenous RNASE4 1 μg/ml
Description: FIGS. 15A-D. RNASE4 knockdown inhibits LNCaP cell proliferation in vitro and colony formation in soft agar. (A) Immunoblot analysis of RNASE4 in LNCaP cells stably transfected with shControl, shRNASE4-1, and shRNASE4-2. (B) qRT-PCR analysis of RNASE4 mRNA normalized to GAPDH in LNCaP cells stably transfected with shControl, shRNASE4-1, and shRNASE4-2. (C) Effect of RNASE4 knockdown on LNCaP cell proliferation. Cell numbers were counted by Coulter counter. Exogenous RNASE4, when presented, was at the concentration of 1 μg/ml. Data shown are from a representative experiment in triplicates of 3 independent experiments. (D) Effects of RNASE4 knockdown on colonies formation and growth of LNCaP cells in soft agar. The same numbers of control and RNASE4 knockdown cells were seeded in soft agar, and grown in the absence or presence of 1 μg/ml of RNASE4 for 14 days. Colonies were counted and size measured on a Nikon Eclipse ti microscope. Top panels, representative images of colonies; scale bars=100 μm. Bottom panels, quantification of LMCaP cell colonies and sizes in soft agar. Data shown are means±SEM of five randomly selected fields per dish from a representative experiment. **P≤0.01 and ***P≤0.001, by two-tailed Student's t test.
as §1

DU145 cells [2] = assay: RNASE4 knockdown, colony formation in soft agar; details: DU145, exogenous RNASE4 1 μg/ml, 14 days
Description: as §2, §1

B1: RNASE4: recombinant human RNASE4 protein from pET11 expression in E. coli, purified by reversed-phase HPLC; added exogenously (protein, UniProt P34096 29-147, looked up)
Ribonuclease 4: QDGMYQRFLRQHVHPEETGGSDRYCNLMMQRRKMTLYHCKRFNTFIHEDIWNIRSICSTTNIQCKNGKMNCHEGVVKVTDCRDTGSSRAPNCRYRAIASTRRVVIACEGNPQVPVHFDG
able to rescue: rescue of the effect of RNASE4 knockdown on cell proliferation (PC-3 cells) | rescue of the effect of RNASE4 knockdown on cell proliferation (DU145 cells [1]) | rescue of the effect of RNASE4 knockdown on cell proliferation (LNCaP cells) | rescue of the effect of RNASE4 knockdown on colony formation (DU145 cells [2])
